Experimental findings from PMC2875725 are described below.

For this data set, the target named is HCV NS5B RNA-dependent RNA polymerase (Hepatitis C virus (strain ), UniProt Q9WMX2 2421-3010). Briefly: protein chip with QD fluorescence.
Sequence of HCV NS5B RNA-dependent RNA polymerase (Q9WMX2 2421-3010): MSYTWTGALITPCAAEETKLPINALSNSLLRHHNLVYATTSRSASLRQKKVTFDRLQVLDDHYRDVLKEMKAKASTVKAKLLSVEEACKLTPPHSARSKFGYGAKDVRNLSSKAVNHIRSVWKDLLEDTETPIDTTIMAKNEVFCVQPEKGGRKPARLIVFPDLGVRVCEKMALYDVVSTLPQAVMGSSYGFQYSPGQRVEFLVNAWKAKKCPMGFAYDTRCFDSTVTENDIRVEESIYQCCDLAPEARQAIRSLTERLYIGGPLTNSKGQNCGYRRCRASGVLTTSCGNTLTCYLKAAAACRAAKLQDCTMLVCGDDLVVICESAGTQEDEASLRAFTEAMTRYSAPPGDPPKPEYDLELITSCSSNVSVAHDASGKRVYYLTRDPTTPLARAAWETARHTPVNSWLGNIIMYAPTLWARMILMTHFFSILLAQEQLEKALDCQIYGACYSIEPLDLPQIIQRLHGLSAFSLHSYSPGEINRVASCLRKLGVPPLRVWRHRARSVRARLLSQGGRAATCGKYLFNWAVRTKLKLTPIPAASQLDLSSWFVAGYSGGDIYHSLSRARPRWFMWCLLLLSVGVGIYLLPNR

B1: NS5Bmut RNA oligonucleotide (ssRNA)
RNA: CCCCACAUUCUCACCCCCUC
modifications: 5'-amine
For the molecule B1, the binding result is reported as “no binding”.
